From patent US20240400701A1 (LANOVA MEDICINES DEVELOPMENT, published 2024)

T1: mouse AMHR2 (mouse, UniProt Q8K592 16-568)
T1 construct: whole, on cells; also called mouse AMHRII
T1 sequence (looked up): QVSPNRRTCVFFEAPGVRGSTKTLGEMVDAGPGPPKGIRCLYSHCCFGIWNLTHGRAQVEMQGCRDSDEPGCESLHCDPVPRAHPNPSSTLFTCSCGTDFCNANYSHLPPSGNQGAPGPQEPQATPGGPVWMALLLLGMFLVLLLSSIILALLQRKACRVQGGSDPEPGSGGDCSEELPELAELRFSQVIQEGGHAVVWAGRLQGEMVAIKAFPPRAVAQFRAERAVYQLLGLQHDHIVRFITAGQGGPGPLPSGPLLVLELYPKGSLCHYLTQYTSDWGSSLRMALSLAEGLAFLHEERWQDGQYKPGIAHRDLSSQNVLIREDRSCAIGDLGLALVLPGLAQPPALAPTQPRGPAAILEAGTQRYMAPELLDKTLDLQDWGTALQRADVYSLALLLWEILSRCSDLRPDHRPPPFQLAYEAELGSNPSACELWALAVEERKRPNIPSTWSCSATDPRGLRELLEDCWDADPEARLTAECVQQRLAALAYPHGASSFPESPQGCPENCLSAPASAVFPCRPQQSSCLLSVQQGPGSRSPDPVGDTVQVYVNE

T2: human AMHRII (anti-Mullerian hormone receptor type 2) (human, UniProt Q16671 18-573)
T2 construct: whole, on cells; also called AMHR2; human AMHR2
T2 sequence (looked up): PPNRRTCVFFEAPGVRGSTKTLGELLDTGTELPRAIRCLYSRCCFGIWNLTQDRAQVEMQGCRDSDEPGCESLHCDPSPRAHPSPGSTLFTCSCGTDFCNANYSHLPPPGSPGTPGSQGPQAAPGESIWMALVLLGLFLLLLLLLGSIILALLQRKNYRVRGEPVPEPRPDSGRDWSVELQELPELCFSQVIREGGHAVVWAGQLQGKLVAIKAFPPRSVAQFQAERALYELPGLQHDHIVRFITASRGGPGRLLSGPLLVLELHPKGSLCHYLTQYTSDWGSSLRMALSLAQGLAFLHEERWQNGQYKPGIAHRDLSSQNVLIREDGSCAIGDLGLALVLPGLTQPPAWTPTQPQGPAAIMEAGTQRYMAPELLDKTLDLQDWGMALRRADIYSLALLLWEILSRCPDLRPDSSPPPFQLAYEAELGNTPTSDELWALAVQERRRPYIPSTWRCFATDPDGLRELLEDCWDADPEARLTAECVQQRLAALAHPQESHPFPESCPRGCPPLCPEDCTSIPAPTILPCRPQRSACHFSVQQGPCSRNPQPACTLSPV

T3: rat AMHR2 (rat, UniProt Q62893 18-557)
T3 construct: whole, on cells; also called rat AMHRII
T3 sequence (looked up): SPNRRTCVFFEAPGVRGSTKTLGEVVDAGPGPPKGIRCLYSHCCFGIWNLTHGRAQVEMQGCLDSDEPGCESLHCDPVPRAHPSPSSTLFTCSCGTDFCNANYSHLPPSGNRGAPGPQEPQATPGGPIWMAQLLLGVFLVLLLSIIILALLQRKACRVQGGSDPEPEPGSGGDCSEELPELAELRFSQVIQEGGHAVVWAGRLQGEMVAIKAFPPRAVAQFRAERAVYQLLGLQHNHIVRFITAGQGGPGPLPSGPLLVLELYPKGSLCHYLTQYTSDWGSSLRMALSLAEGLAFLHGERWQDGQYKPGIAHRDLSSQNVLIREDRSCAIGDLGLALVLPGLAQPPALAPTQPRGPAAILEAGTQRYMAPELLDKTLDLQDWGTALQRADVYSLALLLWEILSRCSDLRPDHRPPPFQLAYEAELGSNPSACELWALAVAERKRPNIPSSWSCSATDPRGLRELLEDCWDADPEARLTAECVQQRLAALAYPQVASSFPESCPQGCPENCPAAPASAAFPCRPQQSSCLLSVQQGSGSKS


Legend:
mouse AMHR2 = molecular target: T1, mouse AMHR2; assay: FACS on CHO-K1 cells over-expressing mouse AMHR2
Method: (§1) To evaluate these antibodies' cross reactivities to cyno, rat and mouse AMHR2, CHO-K1 cells over-expressing cyno, rat and mouse AMHR2, respectively, were harvested from flasks. 100 μl of 1×10⁶ cells/ml of cells were incubated with primary antibodies in 4-fold serial dilutions starting from 300 nM to 0.018 nM for 30 minutes on ice. After being washed with 200 μl of FACS buffer twice, cells were incubated with secondary antibody for 30 minutes on ice. Cells were washed with 200 μl of FACS buffer twice and analyzed by FACS.

[1] = molecular target: T2, human AMHRII (anti-Mullerian hormone …); assay: FACS on CHO-K1 cells over-expressing human AMHR2
Method: (§2) CHO-K1 cells over-expressed AMHR2 were harvested from flasks. 100 μl of 1×10⁶ cells/ml of cells were incubated with the humanized antibodies in 3-fold serial dilutions starting from 300 nM to 0.001 nM for 30 minutes on ice. After being washed with 200 μl of FACS buffer twice, cells were incubated with secondary antibody for 30 minutes on ice. Cells were washed with 200 μl of FACS buffer twice and analyzed by FACS.

rat AMHR2 = molecular target: T3, rat AMHR2; assay: FACS on CHO-K1 cells over-expressing rat AMHR2
Method: as §1

[2] = molecular target: T2, human AMHRII (anti-Mullerian hormone …); assay: FACS on Rko cells over-expressing human AMHR2
Method: as §2, with “Rko” for “CHO-K1”, “over-expressing” for “over-expressed”, “primary PTM” for “the humanized”

[3] = molecular target: T2, human AMHRII (anti-Mullerian hormone …); assay: FACS on CHO-K1 cells over-expressing human AMHR2; remark: listed apart in the source
Method: as §2

| binding result (mouse AMHR2) | EC50 [1] | Top (MFI) [1] | binding result (rat AMHR2) | EC50 [2] | Top (MFI) [2] | EC50 [3] | Top (MFI) [3] | Binder |
| --- | --- | --- | --- | --- | --- | --- | --- | --- |
| binds | – | – | binds | 0.528 nM | 16200 MFI | 0.74 nM | 65400 MFI | 108F3D1E9 H1L1 hIgG1 (antibody, V domains shown, Humanized, PTM de-risked VH, human IgG1; also called 108F3D1E9 H1L1 hlgG1) VH: QLQLQESGPGLVKPSETLSLTCTVSGYSITSDFAWNWIRQPPGKGLEWIGYISFSGSTSYNPSLKSRVTISVDTSKNQFSLKLSSVTAADTAVYYCARSRYSWFAYWGQGTLVTVSS VL: DIQMTQSPSSLSASVGDRVTITCRASESVDTYGNSFMHWYQQKPGKAPKLLIYRASNLESGVPSRFSGSGSGTDFTLTISSLQPEDFATYYCQQSNEDPYTFGGGTKVEIK |
| binds | – | – | binds | 0.695 nM | 18900 MFI | 1.7 nM | 53000 MFI | 94C4C3 H1L1 hIgG1 (antibody, V domains shown, Humanized, human IgG1; also called 94C4C3 H1L1 hlgG1) VH: QLQLQESGPGLVKPSETLSLTCTVSGYSITSDYAWNWIRQPPGKGLEWIGYISYSGSISYNPSLKSRVTISVDTSKNQFSLKLSSVTAADTAVYYCARSRYSWFDYWGQGTLVTVSS VL: EIVLTQSPGTLSLSPGERATLSCSASESVDTYGNSFMHWYQQKPGQAPRLLIYRASSLESGIPDRFSGSGSGTDFTLTISRLEPEDFAVYYCQQSNEDPYTFGGGTKVEIK |

| Binder | binding result (mouse AMHR2) | EC50 [1] | Top (MFI) [1] | binding result (rat AMHR2) | EC50 [2] | Top (MFI) [2] | EC50 [3] | Top (MFI) [3] |
| --- | --- | --- | --- | --- | --- | --- | --- | --- |
| 31D9B3 VH1.3-VL2.2 hIgG1 (antibody, V domains shown, Humanized, PTM de-risked, human IgG1; also called 31D9B3 VH1.3-VL2.2 hlgG1) VH: QVQLVQSGAEVKKPGASVKVSCKASGYTFTDYWVSWVRQAPGQGLEWMGEIYPKNQVSNFNEKFKGRVTMTTDTSTSTAYMELRSLRSDDTAVYYCARQRDYWGQGTLVTVSS VL: DVVMTQSPLSLPVTLGQPASISCRSSQSLEYGDRYTYLEWYLQRPGQSPRLLIYGVSNRFSGVPDRFSGSGSGTDFTLKISRVEAEDVGVYYCFQATHDPNTFGQGTKLEIK | no binding (tested: 300 nM highest concentration) | 0.703 nM | 24100 MFI | no binding (tested: 300 nM highest concentration) | 0.783 nM | 16400 MFI | – | – |
